According to the supplement of paper PMC12667976:

B1: library; numbered along this chain (parent)
chain: MATDAALRRLLRLHRTEIAVAVDSAFPLLHALADHDVVPEDKFQETLHLKEKEGCPQAFHALLSWLLTQDSTAILDFWRVLFKDYNLERYGRLQPILDSFPKDVDLSQPRKGRKPPAVPKALVPPPRLPTKRKASEEARAAAPAALTPRGTASPGSQLKAKPPKKPESSAEQQRLPLGNGIQTMSASVQRAVAMSSGDVPGARGAVEGILIQQVFESGGSKKCIQVGGEFYTPSKFEDSGSGKNKARSSSGPKPLVRAKGAQGAAPGGGEARLGQQGSVPAPLALPSDPQLHQKNEDECAVCRDGGELICCDGCPRAFHLACLSPPLREIPSGTWRCSSCLQATVQEVQPRAEEPRPQEPPVETPLPPGLRSAGEEVRGPPGEPLAGMDTTLVYKHLPAPPSAAPLPGLDSSALHPLLCVGPEGQQNLAPGARCGVCGDGTDVLRCTHCAAAFHWRCHFPAGTSRPGTGLRCRSCSGDVTPAPVEGVLAPSPARLAPGPAKDDTASHEPALHRDDLESLLSEHTFDGILQWAIQSMARPAAPFPS

Variants of: B1
Experiment: AIRE transcriptional activation functional score (insulin promoter-GFP; nonsense median 0, synonymous median 1) (normalised score); higher = higher AIRE activity (more reporter activation)
Conditions: with insulin promoter-GFP reporter in HEK293
Description: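 Deep mutational scan of full-length human AIRE (codon-optimized cDNA, DT-POPCode NNN libraries over three regions) integrated at a Bxb1 landing pad in HEK293 cells carrying an insulin core promoter-GFP reporter at a Flp-In site. Cells were sorted for the top 10% GFP about 14 days after transfection. Variant frequency log-ratios (select vs non-select, TileSeq) were rescaled so that the nonsense median is 0 and the synonymous median is 1, then averaged over biological replicates.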

AIRE transcriptional activation functional score, by site and new letter:
S168: G 0.755; H 1.23; I 0.348; K 1.08; L 0.825; M 1.47; N 0.613; P -0.113; Q 0.489; R 1.36; T 1.06; V 0.761; W 1.46; Y 1.37
S169: A 0.813; C 0.968; D 1.22; E 0.245; F 1.46; G 1.42; I 1.2; K 1.77; L 1.7; M 0.503; N 1.18; P 1.73; Q 0.286; R 0.711; T -0.214; V 1.35; W 1.57; Y 1.62
A170: C 1.24; D 0.761; E 0.67; F 1.69; G 0.778; H 1.86; I 0.784; K 1.97; L 0.356; M 0.0569; N 1.2; P 0.929; Q 0.496; R 1.29; S 0.78; T 0.748; V 0.782; W 1.84; Y 2.08
E171: A 1.77; C 1.96; D 0.998; F 2.29; G 1.27; H 1.64; I 1.63; K 0.709; L 1.59; M 2.07; N 1.05; P 1.23; Q 1.15; R 1.22; S 1.96; T 1.52; V 1.65; W 1.93; Y 1.41
Q172: A 0.74; C 1.13; D 1.14; E 0.286; F 1.82; G 0.609; H 1.81; I 2.08; K 0.844; L 1.55; M 2.4; N 0.691; P 0.611; R 1.46; S 0.645; T 1.56; V 1.18; W 1.71; Y 1.7
Q173: A 0.957; C 1.51; D 0.988; E 0.663; F 1.97; G 0.757; H 0.885; I 1.45; K 1.44; L 1.52; M 2.11; N 1.68; P 1.05; R 1.67; S 1.34; T 1.44; V 1.32; W 1.54; Y 1.93
R174: A 0.803; C 0.35; D 0.334; E 0.744; F 1.53; G 0.531; H 0.805; I 0.22; K 0.973; L 0.495; M 0.283; N -0.393; P 0.727; Q 0.21; S 0.758; T 0.614; V 0.506; W 2.14; Y 1.09
L175: A 0.583; C 0.818; D 1.04; E -0.0357; F 1.16; G 0.614; H 1.33; I 0.709; K 0.766; M 1.05; N 0.295; P 0.463; Q 1.1; R 1.06; S 0.686; T 0.916; V 0.629; W 1.8; Y 1.5
P176: A 1.33; C 2.34; D -0.465; E 0.297; F 1.46; G 0.765; H 1.07; I 1.65; K 1.33; L 1.6; M 2.1; N 0.411; R 1.63; S 1.4; T 0.957; V 1.54; W 1.08; Y 1.88
L177: A 0.839; C 0.72; D 0.322; E -0.132; F 1.5; G -0.4; H 1.01; I 0.748; K 1.09; M 1.57; N 0.575; P 0.397; Q 0.719; R 0.707; S 0.553; T 0.252; V 0.75; W 2.38; Y 1.89
G178: A 0.405; C 1.22; D 0.549; E 0.493; F 1.08; I 1.74; K 0.788; L 1.58; M 1.65; N 0.294; P 0.532; Q 0.33; R 1.49; S 1.26; T 1.11; V 1.28; W 0.64; Y 1.89
N179: A 1.53; C 1.26; D 0.42; E 1.14; F 0.503; G 0.991; H 1.97; I 1.15; K 1.14; L 0.991; M 1.62; P 1.71; Q -0.585; R 1.52; S 0.818; T 1.79; V 1.49; W -2.31; Y 1.15
G180: A 1.21; C 1.24; D 0.474; E 0.208; F -0.106; H 1.31; I 0.248; K 1.02; L 0.0432; M 0.445; N 1.23; P -1.38; R 1.63; S 0.929; T 0.839; V 0.54; W -0.0444; Y 0.548
I181: A 0.485; C 0.211; D 0.3; E 0.0205; F 1.59; G 0.602; H -0.417; K 0.076; L 0.717; M 0.958; N 1.53; P -1.22; Q -0.331; R 0.684; S 0.834; T 0.242; V 0.788; W 1.14; Y 1.13
Q182: A 1.52; C 1.4; D 0.345; E 1.46; F -0.279; G 0.423; H 1.91; I -0.398; K 1.73; L 0.0585; M 0.383; N 1.54; P 0.264; R 1.3; S 1.05; T 1.69; V -0.0151; W 0.0615; Y 0.181
T183: A 0.69; C 1.48; D 0.425; E 0.451; F 0.248; G 0.735; H 0.652; I 0.211; K 0.924; L 0.699; M 0.663; N 1.18; P 0.392; Q 0.469; R 0.948; S 0.952; V 0.738; W 0.659; Y -0.205
M184: A 0.129; D -0.962; E -0.977; F 0.676; G 1.01; I 0.983; L 0.411; N 0.0346; P 0.519; Q 0.653; R 0.932; S 0.488; T 0.688; V 0.51; W 0.275; Y 0.481
S185: A 0.878; C 0.855; D 0.436; E 0.209; F 0.468; G 0.881; H -0.313; I 0.353; K 1; L -0.0826; M -0.432; N 0.832; P 0.302; Q 0.746; R 0.854; T 1.56; V 0.26; W 0.557; Y 0.264
A186: C 1.29; D 1.11; E 0.734; F -0.0353
